Reference: patent publication US20130059772A1, “Use of Repeat Sequence Protein Polymers in Personal Care Compositions” (DANISCO US INC., priority 2003, published 2013)

Key:
[1] = test system: MMP-1; experiment: MMP-1 assay (fluorometric ELISA of fibroblast culture media); assay type: cell-based, human; conditions: for MMP-1 Activity: 48 hours, untreated 0.11 ± 0.05; for effect on MMP-1 activity: summary in words
Description: MMP-1 is a zinc and calcium dependent endopeptidase that is produced and released from both dermal fibroblasts and keratinocytes, and functions to break down collagens located in the extracellular matrix. Active MMP-1 released into the culture media can be assayed using a fluorescence-based ELISA. […] To quantify the active MMP-1 a fluorogenic substrate linked to a quencher molecule is added and any active MMP-1 present will cleave the peptide linkage between the fluorophore and the quencher molecule. This cleavage will eliminate the quencher molecules ability to inhibit the fluorescent signal of the fluorophore allowing a fluorescent signal that will be proportional to the amount of active MMP-1 present.
(§1) The test materials were tested in triplicate.
R&D Products MMP-1 Fluorokine E fluorometric ELISA kits were used in these experiments. A series of MMP-1 standards was prepared ranging from 0.39 ng/ml to 25 ng/ml and an ELISA microplate was prepared by removing any unneeded strips from the plate frame. In each well, 200 μA of Assay Diluent RD1-64 and 50 μA of each sample were added. For the standards, 100 μl of Assay Diluent RD1-64 and 150 μl of each respective standard were added. The plate was incubated for 3±0.25 hours at room temperature on a rocking platform. At the end of the incubation period, each well was aspirated and then washed four times with 400 μl of wash buffer. […] After the incubation period, the plate was washed four times as described above. After the last wash, 200 μl of substrate solution were added to each well and the plate was incubated for 17-20 hours at 37±2° C. (protected from light). At the end of the incubation period, the fluorescence intensity was measured (excitation 320 nm, emission 405 nm) using a fluorometer using a 20 mS integration time. To quantify the amount of MMP-1 activity, a standard curve was generated using known activity levels of MMP-1. […] Mean absorbance values for the test materials and untreated samples were then used to estimate the amount of MMP-1 activity present in each sample.

[2] = test system: Fibroblasts (HDFn Cell Line); experiment: Initial pilot cell viability dose response (MTT assay); conditions: for effect on the number of viable cells: initial dose response, summary in words; for cell viability, percent of untreated cells: 48 hours
Description: Initial screening was conducted to identify a test range suitable to determine the effect of a broad range of test material concentrations on cell viability. […] Cultured fibroblasts were exposed to the test materials for 48 hours and then changes in cell viability were determined using an MTT assay (i.e., a colorimetric analysis of the metabolic activity of the cultured cells, described in greater detail below).
The purple crystals are extracted from the cells with isopropanol and the amount of crystal formation quantified spectrophotometrically. […] A decrease in color intensity can be a sign of toxicity.
Fibroblasts (Cascade Biologics, HDFn Cell Line, lot#1C0914) were seeded into the individual wells of either a 96-well plate (for the initial pilot work to determine concentration effects on cell viability) in 100 μl of Fibroblast Growth Media (FGM) or in 12-well plates (for the measurement of collagen, elastin and MMP-1) in 1.0 ml of FGM and incubated overnight at 37±2° C. and 5±1% CO2. On the following day, the medium was removed via aspiration to eliminate any non-adherent cells and replaced with fresh FGM. The cells were grown until confluent, with a media change every 48 to 72 hours. Upon reaching confluency, the cells were treated for 24 hours with Dulbecco's Modified Essential Media (DMEM) supplemented with 1.5% FBS to wash out any effects from the growth factors included in the normal FGM. After this 24-hour wash out period, the cells were treated with the test materials at the specified concentrations dissolved in DMEM with 1.5% FBS. Untreated cells (negative controls) received DMEM with 1.5% FBS. The cells were incubated for 48 hours and at the end of the incubation period cell culture medium was either discarded (pilot work) or collected and stored frozen at −75° C. The test materials were tested in triplicate.
After the 2-day incubation, the cell culture medium was removed and the fibroblasts were washed twice with PBS to remove any remaining test material. After the final wash, either 100 μl (96-well plates) or 300 μl (12-well plates) of DMEM supplemented with 0.5 mg/ml MTT were added to each well and the cells were incubated for 1 hour at 37±2° C. and 5±1% CO2. After the incubation, the DMEM/MTT solution was removed and the cells were washed again once with PBS and then either 100 μl (96-well plates) or 1 ml (12-well plates) of isopropyl alcohol were added to each well to extract the purple formazin crystals. For the 12-well plates, two hundred microliters of the isopropyl extracts was transferred to a 96-well plate. The 96-well plates were read at 540 nm using isopropyl alcohol as a blank. The mean MTT absorbance value for the negative control cells was calculated and used to represent 100% value for cell viability. The individual MTT values from the cells undergoing the various treatments were then divided by the mean value for the negative control cells and expressed as a percent, to determine the change in cell viability caused by each treatment.

[3] = test system: elastin; experiment: Elastin assay (Fastin colorimetric assay of culture media); assay type: cell-based, human; conditions: 48 hours, spent fibroblast media, untreated 69 ± 2
Description: Elastin is released by fibroblasts (soluble elastin) into the extracellular space where it is then cross-linked to other elastin proteins to form an extensive network of fibers and sheets (insoluble elastin). Soluble elastin can be readily measured from cell culture medium via a colorimetric assay.
as §1
In these experiments, the Biocolor Fastin Elastin Assay kits were used. A 50 μl aliquot of sample material (cell culture medium for soluble elastin) was mixed with 1.0 ml of cold Fastin Precipitating Reagent in a 1.5-ml microcentrifuge tube. In addition to the spent media samples from the fibroblasts, 50 μl aliquots of the test materials diluted into fresh culture media at the concentrations used in the study were also assayed for elastin content. The sample/Fastin Precipitating Reagent mixture was then incubated overnight in an ice water bath to precipitate the elastin. On the following day, the cold microcentrifuge tubes were spun at 10,000×g for 10 minutes to pack the precipitated elastin and the supernatant was removed via careful aspiration.
One (1) ml of Fastin Dye Reagent, along with 100 μl of 90% saturated ammonium sulphate was added to each tube. The microcentrifuge tubes were mixed with a vortex mixer and then allowed to incubate for at least 60 minutes at room temperature, with gentle mechanical agitation. The Fastin Dye Reagent interacts with unique amino acid sequences in the elastin protein. This elastin-dye complex precipitates in the presence of ammonium sulphate. After the incubation was over, the microcentrifuge tubes were spun at 10,000×g for 10 minutes to separate the precipitated elastin-dye complex from the unbound dye. The supernatant was carefully removed and the tubes were inverted to allow any residual supernatant to drain out.
To release the elastin-bound dye, 1.0 ml of Fastin Destain reagent was added to each microcentrifuge tube. The tubes were capped as quickly as possible, as this reagent contains ammonia and methanol. The tubes were then vortexed. The absorbance of this solution was measured by a plate reader at 490 nm (200 μl volume read).
An elastin standard curve was generated using 12.5, 25, and 50 μg aliquots of an Elastin Standard into microcentrifuge tubes (in duplicate). These samples were treated as described above (Elastin Assay) and the absorbance values were used to generate a standard curve of known concentrations. To derive the standard curve for the elastin assay, the absorbance was plotted against the elastin concentration in μg/ml for the standards. […] Mean absorbance values for the test materials and untreated samples were then used to estimate the amount of elastin present in each sample.

[4] = test system: procollagen type I C-peptide; experiment: Procollagen assay (type I C-peptide ELISA of fibroblast culture media); assay type: cell-based, human; conditions: 48 hours, untreated 873 ± 111
Excerpt: Collagen is synthesized as part of a much larger procollagen peptide. As the peptide is processed to form a mature collagen protein, the propeptide portion is cleaved off (type I C-peptide). Both the mature collagen protein and the type I C-peptide fragment are then released into the extracellular environment and accumulate in the culture media. Since there is a 1:1 stoichiometric ratio between the two parts of the procollagen peptide, assaying for type I C-peptide will reflect the amount of collagen synthesized. Type 1 C-peptide can be assayed via an ELISA based method.
as §1
Takara procollagen type IC-peptide ELISA kits were used in these experiments. A series of type I C-peptide standards was prepared ranging from 40 ng/ml to 640 ng/ml. An ELISA microplate was then prepared by removing any unneeded strips from the plate frame. To each well in the plate 100 μl of peroxidase-labeled anti procollagen type I-C peptide was added, followed by 20 μA of either sample (tissue culture media) or standard. The microplate was covered and allowed to incubate for 3±0.25 hours at 37° C. After the incubation period, each well was aspirated and washed three times with 400 μl of wash buffer. After the last wash was removed, 100 μl of peroxidase substrate solution (hydrogen peroxide containing tetramethylbenzidine as a chromagen) were added to each well and the plate was incubated for 15±5 minutes at room temperature. After the incubation period, 100 μA of stop solution (1 N sulfuric acid) was added to each well and the plate was read using a microplate reader at 450 nm. To quantify the amount of procollagen present, a standard curve was generated using known concentrations of procollagen type 1-C peptide. […] Mean absorbance values for the test materials and untreated samples was then used to estimate the amount of procollagen type 1-C peptide present in each sample.

B1: GC2596-26-E: collagen-like repeat sequence protein polymer, head-[(GAHGPAGPK)2(GAQGPAGPG)24(GAHGPAGPK)2]4-tail; SEQ ID NO:34 (Example 5) (protein)
chain: MDPVVLQRRDWENPGVTQLNRLAAHPPFASDPMGAHGPAGPKGAHGPAGPKGAQGPAGPGGAQGPAGPGGAQGPAGPGGAQGPAGPGGAQGPAGPGGAQGPAGPGGAQGPAGPGGAQGPAGPGGAQGPAGPGGAQGPAGPGGAQGPAGPGGAQGPAGPGGAQGPAGPGGAQGPAGPGGAQGPAGPGGAQGPAGPGGAQGPAGPGGAQGPAGPGGAQGPAGPGGAQGPAGPGGAQGPAGPGGAQGPAGPGGAQGPAGPGGAQGPAGPGGAHGPAGPKGAHGPAGPKGAHGPAGPKGAHGPAGPKGAQGPAGPGGAQGPAGPGGAQGPAGPGGAQGPAGPGGAQGPAGPGGAQGPAGPGGAQGPAGPGGAQGPAGPGGAQGPAGPGGAQGPAGPGGAQGPAGPGGAQGPAGPGGAQGPAGPGGAQGPAGPGGAQGPAGPGGAQGPAGPGGAQGPAGPGGAQGPAGPGGAQGPAGPGGAQGPAGPGGAQGPAGPGGAQGPAGPGGAQGPAGPGGAQGPAGPGGAHGPAGPKGAHGPAGPKGAHGPAGPKGAHGPAGPKGAQGPAGPGGAQGPAGPGGAQGPAGPGGAQGPAGPGGAQGPAGPGGAQGPAGPGGAQGPAGPGGAQGPAGPGGAQGPAGPGGAQGPAGPGGAQGPAGPGGAQGPAGPGGAQGPAGPGGAQGPAGPGGAQGPAGPGGAQGPAGPGGAQGPAGPGGAQGPAGPGGAQGPAGPGGAQGPAGPGGAQGPAGPGGAQGPAGPGGAQGPAGPGGAQGPAGPGGAHGPAGPKGAHGPAGPKGAHGPAGPKGAHGPAGPKGAQGPAGPGGAQGPAGPGGAQGPAGPGGAQGPAGPGGAQGPAGPGGAQGPAGPGGAQGPAGPGGAQGPAGPGGAQGPAGPGGAQGPAGPGGAQGPAGPGGAQGPAGPGGAQGPAGPGGAQGPAGPGGAQGPAGPGGAQGPAGPGGAQGPAGPGGAQGPAGPGGAQGPAGPGGAQGPAGPGGAQGPAGPGGAQGPAGPGGAQGPAGPGGAQGPAGPGGAHGPAGPKGAHGPAGPKMDPGRYQLSAGRYHYQLVWCQK
modifications: silk-elastin repeat sequence protein copolymer
For B1, the “MMP-1 Activity” value ([1]; 0.001%) was 0.04 ± 0.05 ng/mL, the “MMP-1 Activity” value ([1]; 0.005%) was -0.01 ± 0.02 ng/mL and the “MMP-1 Activity” value ([1]; 0.01%) was 0.00 ± 0.02 ng/mL. The “effect on MMP-1 activity” value [1] was “almost complete loss of detectable MMP-1 activity”, the “effect on the number of viable cells” value [2] was “reduce the number of viable cells” and the Elastin ([3]; 0.001%) was 63 ± 10 μg/ml media. For the same molecule, the Elastin ([3]; 0.005%) was 59 ± 5 μg/ml media, the Elastin ([3]; 0.01%) was 50 ± 18 μg/ml media and the “Type-1 C Peptide” value ([4]; 0.001%) was 838 ± 75 ng/mL. The “Type-1 C Peptide” value ([4]; 0.005%) was 1162 ± 194 ng/mL and the “Type-1 C Peptide” value ([4]; 0.01%) was 956 ± 110 ng/mL.

B2: GC2596-26-D: SELP47K modified with two units of ALSYP (SEQ ID NO:36) peptides in each SELP47K unit; SEQ ID NO:32 (Example 4) (protein)
chain: MDPVVLQRRDWENPGVTQLNRLAAHPPFASDPMGAGAGSGAGAGSALSYPGVGVPGVGVPGVGVPGVGVPGKGVPGVGVPGVGVPGVGVPALSYPGAGAGSGAGAGSGAGAGSGAGAGSALSYPGVGVPGVGVPGVGVPGVGVPGKGVPGVGVPGVGVPGVGVPALSYPGAGAGSGAGAGSGAGAGSGAGAGSALSYPGVGVPGVGVPGVGVPGVGVPGKGVPGVGVPGVGVPGVGVPALSYPGAGAGSGAGAGSGAGAGSGAGAGSALSYPGVGVPGVGVPGVGVPGVGVPGKGVPGVGVPGVGVPGVGVPALSYPGAGAGSGAGAGSGAGAGSGAGAGSALSYPGVGVPGVGVPGVGVPGVGVPGKGVPGVGVPGVGVPGVGVPALSYPGAGAGSGAGAGSGAGAGSGAGAGSALSYPGVGVPGVGVPGVGVPGVGVPGKGVPGVGVPGVGVPGVGVPALSYPGAGAGSGAGAGSGAGAGSGAGAGSALSYPGVGVPGVGVPGVGVPGVGVPGKGVPGVGVPGVGVPGVGVPALSYPGAGAGSGAGAGSGAGAGSGAGAGSALSYPGVGVPGVGVPGVGVPGVGVPGKGVPGVGVPGVGVPGVGVPALSYPGAGAGSGAGAGSGAGAGSGAGAGSALSYPGVGVPGVGVPGVGVPGVGVPGKGVPGVGVPGVGVPGVGVPALSYPGAGAGSGAGAGSGAGAGSGAGAGSALSYPGVGVPGVGVPGVGVPGVGVPGKGVPGVGVPGVGVPGVGVPALSYPGAGAGSGAGAGSGAGAGSGAGAGSALSYPGVGVPGVGVPGVGVPGVGVPGKGVPGVGVPGVGVPGVGVPALSYPGAGAGSGAGAGSGAGAGSGAGAGSALSYPGVGVPGVGVPGVGVPGVGVPGKGVPGVGVPGVGVPGVGVPALSYPGAGAGSGAGAGSGAGAGSGAGAGSALSYPGVGVPGVGVPGVGVPGVGVPGKGVPGVGVPGVGVPGVGVPALSYPGAGAGSGAGAGSGAGAMDPGRYQDLRSHHHHHH
modifications: SELP 47K-P4
With B2 the “MMP-1 Activity” value ([1]; 0.0014%) was -0.01 ± 0.01 ng/mL, the “MMP-1 Activity” value ([1]; 0.007%) was -0.02 ± 0.02 ng/mL and the “MMP-1 Activity” value ([1]; 0.014%) was -0.03 ± 0.01 ng/mL. The “effect on MMP-1 activity” value [1] was “almost complete loss of detectable MMP-1 activity”, the “cell viability, percent of untreated cells” value (“cell viability, percent” for short) ([2]; 0.0014%) was 130 ± 15% and the “cell viability, percent” value ([2]; 0.007%) was 138 ± 9%. For the same molecule, the “cell viability, percent” value ([2]; 0.014%) was 145 ± 12%, the “cell viability, percent” value ([2]; 0.07%) was 145 ± 11% and the “cell viability, percent” value ([2]; 0.14%) was 154 ± 24%. The “effect on the number of viable cells” value [2] was “strongly stimulate increases in the number of viable cells”, the Elastin ([3]; 0.0014%) was 72 ± 12 μg/ml media and the Elastin ([3]; 0.007%) was 69 ± 4 μg/ml media. The Elastin ([3]; 0.014%) was 68 ± 10 μg/ml media, the “Type-1 C Peptide” value ([4]; 0.0014%) was 894 ± 156 ng/mL and the “Type-1 C Peptide” value ([4]; 0.007%) was 908 ± 94 ng/mL. The “Type-1 C Peptide” value ([4]; 0.014%) was 829 ± 171 ng/mL.
